Source: patent US20250043019A1 (Janssen / Centocor, published 2025)

Experiments:
[1] = biological target: T1, human CD79b on the cell surface (human, UniProt P40259 29-229); experiment: cell-based or functional assay
T1 sequence: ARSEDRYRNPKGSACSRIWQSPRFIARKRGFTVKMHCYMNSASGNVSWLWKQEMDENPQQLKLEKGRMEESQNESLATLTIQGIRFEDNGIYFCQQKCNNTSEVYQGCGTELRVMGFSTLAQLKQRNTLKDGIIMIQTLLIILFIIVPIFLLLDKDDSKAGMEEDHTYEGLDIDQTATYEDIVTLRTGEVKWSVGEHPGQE

[2] = biological target: T1, human CD79b on the cell surface; experiment: cell-based or functional assay; remark: listed apart in the source
[3] = biological target: T1, human CD79b on the cell surface; experiment: cell-based or functional assay; remark: listed apart in the source
[4] = biological target: T1, human CD79b on the cell surface; experiment: cell-based or functional assay; remark: listed apart in the source
[5] = biological target: T1, human CD79b on the cell surface; experiment: flow cytometry, HBL-1 cells, 1 h 37 C
Description: (§1) All cells were washed with BD stain buffer (BD Biosciences; Cat #554657), centrifuged at 1200 RPM for 3 minutes, with supernatant discarded. Cells were then stained for 20 minutes at 4° C. with BD stain buffer containing AlexaFluor 647 labeled anti-human IgG secondary antibody (Jackson Immuno; Cat #109-606-098) at a 1:200 dilution along with Aqua Fixable Live/Dead stain (Invitrogen; Cat #L34957) at a 1:400 dilution. All cells were washed with BD stain buffer (BD Biosciences; Cat #554657), centrifuged at 1200 RPM for 3 mins, with supernatant discarded. Cells were analyzed using Intellicyt (Sartorius) flow cytometer and mean fluorescent intensity (MFI) was generated using Forcyt software (Sartorius). MFI was graphed and EC50 values generated using GraphPad PRISM v.8. Dose response curves were generated by transforming the x axis values using the formula […]. Data was then graphed using non-linear regression curve fit analysis “log(agonist) vs. response-variable slope (four parameter)”.

[6] = biological target: T1, human CD79b on the cell surface; experiment: flow cytometry, Carnaval cells, 1 h 37 C
Description: as §1

[7] = biological target: T2, cynomolgus monkey CD79b antigen (cynomolgus monkey); experiment: SPR Biacore 8k, cyno CD79b injected up to 3000 nM
T2 construct: also called cyno CD79b; CD9W1.001
Description: (§2) General Protocol for SPR Affinity Assessment: Affinity assessment of the bispecific trispecific constructs against human CD79b were measure using recombinantly expressed extracellular domain of CD79b short and long isoforms (CD9W7.001 and CD9W8.001, respectively) by Surface Plasmon Resonance (SPR) using a Biacore 8k SPR system (Biacore) at 25° C. in HBSP+ buffer. Cross-reactivity of the same antibody panel was also assessed against cyno and mouse antigens (CD9W1.001 and CD9W105.001, respectively). Briefly, a C1 sensor chip was immobilized with anti-human Fc (target immobilization levels of >400 RU) using vendor recommended amino coupling protocol. […] The association and dissociation phases were measured for 2 or 3 minutes and 30 minutes, respectively.
(§3) The raw binding sensorgrams were processed using Biacore Insight software (Biacore) by double-referencing and the processed sensorgrams were analyzed for cross-reactivity and fitted to a 1:1 Langmuir model to obtain on-rates, off-rates and affinities.

[8] = biological target: T3, recombinant extracellular domain of human CD79b, short isoform (human, UniProt P40259 29-159); experiment: SPR Biacore 8k, antibody captured by anti-Fc, 25 C
T3 chain: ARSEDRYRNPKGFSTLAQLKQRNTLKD
Description: as §2, §3

[9] = biological target: T4, recombinant extracellular domain of human CD79b, long isoform (human, UniProt P40259 29-159); experiment: SPR Biacore 8k, antibody captured by anti-Fc, 25 C
T4 construct: also called hu CD79b long
T4 sequence: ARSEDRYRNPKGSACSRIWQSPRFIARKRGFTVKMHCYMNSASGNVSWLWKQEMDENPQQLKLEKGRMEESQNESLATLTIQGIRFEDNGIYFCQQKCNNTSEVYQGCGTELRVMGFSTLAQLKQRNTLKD
Description: as §2, §3

[10] = biological target: T1, human CD79b on the cell surface; experiment: flow cytometry, HBL-1 cells, 1 h 37 C; control row of Table 10, same value as Table 8
Description: as §1

[11] = biological target: T1, human CD79b on the cell surface; experiment: flow cytometry, Carnaval cells, 1 h 37 C; control row of Table 10, same value as Table 8
Description: as §1

[12] = biological target: T5, human CD79b and CD20 co-expressed on the surface of B-lymphoma cell lines or primary B cells (human, UniProt P11836 1-297); experiment: cell-based or functional assay
T5 sequence 1: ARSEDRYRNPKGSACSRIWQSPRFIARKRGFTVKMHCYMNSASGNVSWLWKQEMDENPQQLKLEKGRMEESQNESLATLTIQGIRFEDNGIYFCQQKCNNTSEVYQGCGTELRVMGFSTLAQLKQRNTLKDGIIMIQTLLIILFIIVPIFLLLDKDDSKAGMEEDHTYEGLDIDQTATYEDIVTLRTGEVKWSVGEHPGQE
T5 sequence 2: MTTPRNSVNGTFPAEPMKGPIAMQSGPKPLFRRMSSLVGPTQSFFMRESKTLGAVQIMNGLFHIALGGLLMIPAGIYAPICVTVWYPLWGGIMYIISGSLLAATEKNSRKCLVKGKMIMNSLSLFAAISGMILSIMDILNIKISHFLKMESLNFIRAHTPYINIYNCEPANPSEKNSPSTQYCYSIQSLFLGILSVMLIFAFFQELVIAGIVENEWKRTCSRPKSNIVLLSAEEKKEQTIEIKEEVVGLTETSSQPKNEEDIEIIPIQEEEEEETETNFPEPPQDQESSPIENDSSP

[13] = biological target: T5, human CD79b and CD20 co-expressed on …; experiment: cell-based or functional assay; remark: listed apart in the source
[14] = biological target: T5, human CD79b and CD20 co-expressed on …; experiment: cell-based or functional assay; remark: listed apart in the source
[15] = biological target: T5, human CD79b and CD20 co-expressed on …; experiment: cell-based or functional assay; remark: listed apart in the source
[16] = biological target: T5, human CD79b and CD20 co-expressed on …; experiment: cell-based or functional assay; remark: listed apart in the source
[17] = biological target: T5, human CD79b and CD20 co-expressed on …; experiment: flow cytometry, HBL-1 cells (CD79b+ CD20+), 1 h 37 C
Description: as §1

[18] = biological target: T5, human CD79b and CD20 co-expressed on …; experiment: flow cytometry, Carnaval cells (CD79b+ CD20+), 1 h 37 C
Description: as §1

[19] = biological target: T5, human CD79b and CD20 co-expressed on …; experiment: flow cytometry, OCI-LY10 cells (CD79b+ CD20+), 1 h 37 C
Description: as §1

B1: 79C3B651 CD79bxCD3 bispecific antibody (bispecific antibody, human IgG1, kappa, L234A L235A)
heavy: QVQLQESGPGLVKPSQTLSLTCTVSGVSISNYYWSWIRQPPGKGLEWIGRISPSGRTNYNPSLKSRVTMSLDASKNQFSLKLSSVTAADTAVYYCARGEYSGTYSYSFDIWGQGTMVTVSSASTKGPSVFPLAPSSKSTSGGTAALGCLVKDYFPEPVTVSWNSGALTSGVHTFPAVLQSSGLYSLSSVVTVPSSSLGTQTYICNVNHKPSNTKVDKKVEPKSCDKTHTCPPCPAPEAAGGPSVFLFPPKPKDTLMISRTPEVTCVVVSVSHEDPEVKFNWYVDGVEVHNAKTKPREEQYNSTYRVVSVLTVLHQDWLNGKEYKCKVSNKALPAPIEKTISKAKGQPREPQVYTLPPSREEMTKNQVSLSCAVKGFYPSDIAVEWESNGQPENNYKTTPPVLDSDGSFFLVSKLTVDKSRWQQGNVFSCSVMHEALHNRFTQKSLSLSPGK
light: DIQMTQSPSSLSASVGDRVTITCRSSQSLFDSDDGNTYLDWFQQKPGQSPKLLIQTLSYRASGVPSRFSGSGSGTDFTLTISSLQPEDFATYYCMQRMEFPLTFGGGTKVEIKRTVAAPSVFIFPPSDEQLKSGTASVVCLLNNFYPREAKVQWKVDNALQSGNSQESVTEQDSKDSTYSLSSTLTLSKADYEKHKVYACEVTHQGLSSPVTKSFNRGEC
chain: EIVLTQSPATLSASPGERVTLSCSASSSVSYMNWYQQKPGQAPRRWIYDSSKLASGVPARFSGSGSGRDYTLTISSLEPEDFAVYYCQQWSRNPPTFGGGTKVEIKGGSEGKSSGSGSESKSTGGSQVQLVQSGAEVKKPGSSVKVSCKASGYTFTRSTMHWVKQAPGQGLEWIGYINPSSAYTNYNQKFQGRVTLTADKSTSTAYMELSSLRSEDTAVYYCASPQVHYDYAGFPYWGQGTLVTVSSEPKSSDKTHTCPPCPAPEAAGGPSVFLFPPKPKDTLMISRTPEVTCVVVSVSHEDPEVKFNWYVDGVEVHNAKTKPREEQYNSTYRVVSVLTVLHQDWLNGKEYKCKVSNKALPAPIEKTISKAKGQPREPQVYTLPPSREEMTKNQVSLWCLVKGFYPSDIAVEWESNGQPENNYKTTPPVLDSDGSFFLYSKLTVDKSRWQQGNVFSCSVMHEALHNHYTQKSLSLSPGK
notes: IgG1 bispecific; CD79b Fab arm plus CD3 scFv-Fc arm; also called 79C3B651 bsAb; CD9B643 x CD3B2030-N106A
B1 was tested, and the “IC50, T-cell killing of HBL-1 (Incucyte)” value [1] was 32.5 pM, the “IC50, T-cell killing of OCI-Ly10 (Incucyte)” value [2] was 4.7 nM and the “IC50, CARNAVAL killing, 72 h (FACS)” value [3] was 0.25 nM. The “IC50, HBL-1 killing, 72 h (FACS)” value [3] was 2.2 nM, the “IC50, OCI-LY10 killing, 72 h (FACS)” value [3] was over 100 nM and the “Cmax (maximum cytotoxicity), donor 1” value [4] was 5%. For the same binder, the “Cmax (maximum cytotoxicity), donor 2” value [4] was 13%, the “Cmax (maximum cytotoxicity), donor 3” value [4] was 34% and the “EC50, autologous B-cell depletion, donor 3” value [4] was 17 nM. For the same binder, the EC50 [5] was 15 nM, the EC50 [6] was 12 nM and the Kd [7] was over 3000 nM. For the same binder, the Kd [8] was 0.35 nM, the Kd [9] was 0.052 nM and the EC50 [10] was 15 nM. It also gave an EC50 [11] of 12 nM.

B2: C923B99 CD79bxCD20xCD3 trispecific antibody (other)
heavy: QVQLQESGPGLVKPSQTLSLTCTVSGVSISNYYWSWIRQPPGKGLEWIGRISPSGRTNYNPSLKSRVTMSLDASKNQFSLKLSSVTAADTAVYYCARGEYSGTYSYSFDIWGQGTMVTVSSASTKGPSVFPLAPSSKSTSGGTAALGCLVKDYFPEPVTVSWNSGALTSGVHTFPAVLQSSGLYSLSSVVTVPSSSLGTQTYICNVNHKPSNTKVDKKVEPKSCDKTHTCPPCPAPEAAGGPSVFLFPPKPKDTLMISRTPEVTCVVVSVSHEDPEVKFNWYVDGVEVHNAKTKPREEQYNSTYRVVSVLTVLHQDWLNGKEYKCKVSNKALPAPIEKTISKAKGQPREPQVYTLPPSREEMTKNQVSLSCAVKGFYPSDIAVEWESNGQPENNYKTTPPVLDSDGSFFLVSKLTVDKSRWQQGNVFSCSVMHEALHNRFTQKSLSLSPGK
light: DIQMTQSPSSLSASVGDRVTITCRSSQSLFDSDDGNTYLDWFQQKPGQSPKLLIQTLSYRASGVPSRFSGSGSGTDFTLTISSLQPEDFATYYCMQRMEFPLTFGGGTKVEIKRTVAAPSVFIFPPSDEQLKSGTASVVCLLNNFYPREAKVQWKVDNALQSGNSQESVTEQDSKDSTYSLSSTLTLSKADYEKHKVYACEVTHQGLSSPVTKSFNRGEC
chain: EIVLTQSPATLSASPGERVTLSCSASSSVSYMNWYQQKPGQAPRRWIYDSSKLASGVPARFSGSGSGRDYTLTISSLEPEDFAVYYCQQWSRNPPTFGGGTKVEIKGGSEGKSSGSGSESKSTGGSQVQLVQSGAEVKKPGSSVKVSCKASGYTFTRSTMHWVKQAPGQGLEWIGYINPSSAYTNYNQKFQGRVTLTADKSTSTAYMELSSLRSEDTAVYYCASPQVHYDYAGFPYWGQGTLVTVSSEPKSSDKTHTCPPCPAPEAAGGPSVFLFPPKPKDTLMISRTPEVTCVVVSVSHEDPEVKFNWYVDGVEVHNAKTKPREEQYNSTYRVVSVLTVLHQDWLNGKEYKCKVSNKALPAPIEKTISKAKGQPREPQVYTLPPSREEMTKNQVSLWCLVKGFYPSDIAVEWESNGQPENNYKTTPPVLDSDGSFFLYSKLTVDKSRWQQGNVFSCSVMHEALHNHYTQKSLSLSPGKGGSEGKSSGSGSESKSTGGSAIQLTQSPSSLSASVGDRVTITCRASSSVSYIHWFQQKPGKAPKPLIYATSNLASGVPSRFSGSGSGTDFTLTISSLQPEDFATYYCQQWTSNPPTFGQGTKLEIKGGSEGKSSGSGSESKSTGGSQVQLVQSGAEVKKPGSSVKVSCKASGYTFTSYNMHWVRQAPGQGLEWMGAIYPGNGDTSYAQKFQGRVTITADKSTSTAYMELSSLRSEDTAVYYCARSTYYGGDWYFNVWGQGTLVTVSS
notes: Trispecific IgG1; also called CD9B643 / CD3B2030-N106A-scFv-LH-C20B22
For B2, the “IC50, T-cell killing of HBL-1 (Incucyte)” value [12] was 69.2 pM, the “IC50, T-cell killing of OCI-Ly10 (Incucyte)” value [13] was 5.6 nM and the “IC50, CARNAVAL killing (Incucyte)” value [14] was 0.285 nM. The “IC50, CARNAVAL killing, 72 h (FACS)” value [15] was 0.17 nM, the “IC50, HBL-1 killing, 72 h (FACS)” value [15] was 1.68 nM and the “IC50, OCI-LY10 killing, 72 h (FACS)” value [15] was 16.9 nM. For the same binder, the “Cmax (maximum cytotoxicity), donor 1” value [16] was 35%, the “Cmax (maximum cytotoxicity), donor 2” value [16] was 67% and the “Cmax (maximum cytotoxicity), donor 3” value [16] was 66%. For the same binder, the “EC50, autologous B-cell depletion, donor 2” value [16] was 9 nM, the “EC50, autologous B-cell depletion, donor 3” value [16] was 23 nM and the Kd [7] was over 3000 nM. The Kd [8] was 0.27 nM, the Kd [9] was 0.04 nM and the EC50 [17] was 8 nM. For the same binder, the EC50 [18] was 6 nM and the EC50 [19] was 2 nM.
